Results: patent publication US20260210971A1 (Pfizer, published 2026)
Read-outs that look alike come from different tables or passages of the source.

T1: recombinant soluble human TL1A (human, UniProt O95150 71-251)
T1 construct: Homotrimer, expressed in HEK293 and purified over HitrapNTA; no tag is described; Used biotinylated in the HTRF assay and in flow cytometry; also called rsTL1A; hTL1A
T1 sequence: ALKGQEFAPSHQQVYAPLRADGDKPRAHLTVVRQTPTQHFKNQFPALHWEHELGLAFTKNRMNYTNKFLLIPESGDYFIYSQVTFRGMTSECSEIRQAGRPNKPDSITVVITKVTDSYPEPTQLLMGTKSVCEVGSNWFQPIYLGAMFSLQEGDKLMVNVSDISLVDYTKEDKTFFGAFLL

T2: recombinant soluble murine TL1A (mouse, UniProt Q5UBV8 75-252)
T2 construct: also called murine rsTL1A; mouse TL1A
T2 chain: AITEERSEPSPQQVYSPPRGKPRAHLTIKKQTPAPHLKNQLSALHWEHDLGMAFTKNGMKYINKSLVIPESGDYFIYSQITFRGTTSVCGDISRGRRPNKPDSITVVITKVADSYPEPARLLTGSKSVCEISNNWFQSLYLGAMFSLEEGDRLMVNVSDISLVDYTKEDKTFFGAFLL

T3: recombinant soluble cynomolgus monkey TL1A (cynomolgus monkey, UniProt O95150 72-251 (human entry))
T3 construct: also called cyno rsTL1A; cyno TL1A
T3 chain: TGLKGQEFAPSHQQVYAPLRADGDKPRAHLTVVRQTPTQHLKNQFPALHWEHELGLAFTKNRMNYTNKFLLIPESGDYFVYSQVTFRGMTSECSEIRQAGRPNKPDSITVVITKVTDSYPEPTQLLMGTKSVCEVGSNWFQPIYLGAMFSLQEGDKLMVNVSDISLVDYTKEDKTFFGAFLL

T4: recombinant soluble rat TL1A (rat, UniProt Q8K3Y7 76-252)
T4 construct: also called rat rsTL1A
T4 sequence: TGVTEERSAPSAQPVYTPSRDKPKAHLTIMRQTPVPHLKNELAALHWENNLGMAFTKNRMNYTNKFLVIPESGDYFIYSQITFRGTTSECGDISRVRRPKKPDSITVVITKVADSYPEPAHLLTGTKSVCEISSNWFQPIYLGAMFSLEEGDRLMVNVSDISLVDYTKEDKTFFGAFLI


Key:
[1] = biological target: T1, recombinant soluble human TL1A; assay: SPR, IgG captured on anti-hIgG, TL1A injected; off rate too slow to measure
[2] = biological target: T2, recombinant soluble murine TL1A; assay: SPR, IgG captured on anti-hIgG, TL1A injected;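 on koff: biacore measurement on a carboxymethylated dextran chip, double-referenced against a control surface and buffer, rates fitted to a one-to-one binding model, KD from koff over kon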;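 on kon: biacore measurement on a carboxymethylated dextran chip, double-referenced against a control surface and buffer, rates fitted to a one-to-one binding model, KD from koff over kon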
Text: (§1) The antibodies were captured via directly immobilized anti-human IgG (GE Healthcare) onto a carboxymethylated dextran sensor chip surface (CM5) using a Biacore T100 or T200 instrument. Anti-human IgG was immobilized through amine coupling to densities of approximately 4,000-13,000 response units (RU). […] At the end of each cycle, the entire anti-hIgG surface was regenerated by a 30-second pulse of 3M MgCl₂ followed by two consecutive 15-second pulses of PBS-NET. […] All injections were performed at 25° C. at a collection rate of 10 Hz. All sensorgrams were double referenced by using both a control surface and buffer injections. Rate constants were determined by fitting the data to a 1:1 model in Biacore T100, T200 evaluation software v1.0, or BIAevaluation software v4.1.1 and the equation KD=Kd/kₐ.
(§2) At the highest cytokine concentrations, the dissociation phase was sometimes extended to 60 minutes to achieve at least a 5% decrease in binding signal.

[3] = biological target: T1, recombinant soluble human TL1A; assay: KinExA, equilibrium in solution
[4] = biological target: T3, recombinant soluble cynomolgus monkey …; assay: SPR, IgG captured on anti-hIgG, TL1A injected;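 on t1/2: biacore surface plasmon resonance on a dextran sensor chip, double-referenced sensorgrams fitted to a one-to-one binding model, KD taken as dissociation over association rate constant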
Text: as §1, §2

[5] = biological target: T4, recombinant soluble rat TL1A; assay: SPR, IgG captured on anti-hIgG, TL1A injected
Text: as §1, §2

[6] = biological target: T1, recombinant soluble human TL1A; assay: cell-based or functional assay
[7] = biological target: T1, recombinant soluble human TL1A; assay: SPR, IgG captured on anti-hIgG, TL1A injected
Experimental: Biacore analysis was performed using T-200 biosensor, series S CM5 chips and approximately 4000 RU (response units) of an anti-human IgG (GE Healthcare), immobilized in 10 mM sodium acetate immobilization buffer at pH 5.0. Assay conditions were established to minimize the influence of mass transfer, avidity, and rebinding events, as described below. A blank immobilization was carried out on a separate flow cell for reference subtraction. The purified IgGs were diluted in running buffer (PBS, 300 mM sodium chloride, 3.2 mM ethylenediaminetetraacetic acid, 0.01% Tween20) and low levels (<30 RU) captured using a flow rate of 100 μl/min for 2 min, to reduce possible rebinding by the trimeric TL1A. […] Reference-subtracted sensorgrams for each concentration were analyzed using Biacore T-200 evaluation software (v1.0).

[8] = biological target: T2, recombinant soluble murine TL1A; assay: SPR, IgG captured on anti-hIgG, TL1A injected;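 on koff: biacore measurement on a carboxymethylated dextran chip, double-referenced against a control surface and buffer, rates fitted to a one-to-one binding model, KD from koff over kon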;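 on kon: biacore measurement on a carboxymethylated dextran chip, double-referenced against a control surface and buffer, rates fitted to a one-to-one binding model, KD from koff over kon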
[9] = biological target: T1, recombinant soluble human TL1A; assay: SPR, IgG captured on anti-hIgG, TL1A injected; remark: listed apart in the source
[10] = biological target: T3, recombinant soluble cynomolgus monkey …; assay: SPR, IgG captured on anti-hIgG, TL1A injected;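 on t1/2: biacore surface plasmon resonance on a dextran sensor chip, double-referenced sensorgrams fitted to a one-to-one binding model, KD taken as dissociation over association rate constant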
[11] = biological target: T1, recombinant soluble human TL1A; assay: SPR, IgG captured on anti-hIgG, TL1A injected; remark: listed apart in the source
Text: (§3) To characterize the binding kinetics of the anti-TL1A antibodies to TL1A by surface plasmon resonance, each anti-TL1A antibody was captured via directly immobilized anti-human IgG (GE Healthcare) onto a carboxymethylated dextran sensor chip surface (CM5) using a Biacore T100 or T200 instrument. Anti-human IgG was immobilized through amine coupling to densities of approximately 4,000-13,000 response units (RU). […] At the end of each cycle, the entire anti-human IgG (hIgG) surface was regenerated by a 30-second pulse of 3M MgCl₂ followed by two consecutive 15-second pulses of PBS-NET. All injections were performed at 25° C. at a collection rate of 10 Hz. All sensorgrams were double referenced by using both a control surface and buffer injections. Rate constants were determined by fitting the data to a 1:1 model in Biacore T100, T200 evaluation software v1.0, or BIAevaluation software v4.1.1 and the equation KD=kd/kₐ.
(§4) The anti-TL1A antibodies were captured onto immobilized anti-human Fc on a CM5 sensor chip on a Biacore T100 instrument. […] Rate constants shown in the table were determined by fitting to a 1:1 Langmuir binding model in BiaEvaluation v4.1.1 (fit lines shown in red). Data shown are the average and standard deviation of at least 3 independent surfaces between 2 experiments.

[12] = biological target: T3, recombinant soluble cynomolgus monkey …; assay: SPR, IgG captured on anti-hIgG, TL1A injected;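 on t1/2: biacore surface plasmon resonance on a dextran sensor chip, double-referenced sensorgrams fitted to a one-to-one binding model, KD taken as dissociation over association rate constant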
Text: as §3, §4

Row | Binder | Kd [1] [nM] | Kd [2] [nM] | koff [2] [s⁻¹] | kon [2] [M⁻¹ s⁻¹] | t1/2 [2] [s] | Kd [3] [pM] | Kd [4] [nM] | koff [4] [s⁻¹] | kon [4] [M⁻¹ s⁻¹] | t1/2 [4] [h] | Kd [5] [nM] | koff [5] [s⁻¹] | kon [5] [M⁻¹ s⁻¹] | t1/2 [5] [s] | Kd [7] [nM] | koff [7] [s⁻¹] | kon [7] [M⁻¹ s⁻¹] | Kd [8] [nM] | Kd [9] [nM] | Kd [10] [nM] | further results
1 | 1D1 1.30 (antibody, human IgG1, kappa, V domains shown, Expressed as IgG1; also called 1D1 1.30-hIgG1-3m) VH: QVQLVQSGAEVKKPGASVKVSCKASGYDFTYYGISWVRQAPGQGLEWMGWISTYNGVTHYARMLQGRVTMTTDTSTRTAYMELRSLRSDDTAVYYCARENYYGSGSYRGGMDVWGQGTTVTVSS VL: EIVLTQSPATLSLSPGERATLSCRASQSVSSYLAWYQQKPGQAPRLLIYDASNRATGIPARFSGSGSGTDFTLTISSLEPEDFAVYYCQQRSNWPWTFGQGTKVEIKR | < 0.1 | 5.25 | 0.0007 | 140000 | 1080 | 6.8 | 0.142 | 6e-05 | 410000 | 3.31 | 41.9 | 0.0098 | 240000 | 71 | – | – | – | – | – | – | Caspase Assay, average IC50 [6]: 103 pM; NFkB Assay, average IC50 [6]: 370 pM
2 | 1D1 D24 (antibody, V domains shown, IgG with triple mutant Fc as for 1D1 D37) VH: QVQLVQSGAEVKKPGASVKVSCKASGYSFTYYGISWVRQAPGQGLEWMGWISPYNGNTHYARMLQGRVTMTTDTSTRTAYMELRSLRSDDTAVYYCARENYYGSGSYRGGMDVWGQGTTVTVSS VL: EIVLTQSPATLSLSPGERATLSCRASQSVSSYLAWYQQKPGQAPRLLIYDASNRATGIPARFSGSGSGTDFTLTISSLEPEDFAVYYCQQRSNWPWTFGQGTKVEIKR | – | – | – | – | – | – | – | – | – | – | – | – | – | – | 0.394 | 0.000806 | 2.04e+06 | 0.804 | 0.932 | 0.943 | –
3 | 1D1 1.32 (antibody, human IgG1, kappa, V domains shown, Expressed as IgG1) VH: QVQLVQSGAEVKKPGASVKVSCKASGYDFTYYGISWVRQAPGQGLEWMGWISTYNGGTHYARMLQGRVTMTTDTSTRTAYMELRSLRSDDTAVYYCARENYYGSGAYRGGMDAWGQGTTVTVSS VL: EIVLTQSPATLSLSPGERATLSCRASQSVSSYLAWYQQKPGQAPRLLIYDASNRATGIPARFSGSGSGTDFTLTISSLEPEDFAVYYCQQRSNWPWTFGQGTKVEIKR | < 0.1 | 0.906 | 0.00023 | 260000 | 2970 | 6.15 | 0.066 | 2.9e-05 | 460000 | 6.63 | 5.02 | 0.0029 | 580000 | 237 | – | – | – | – | – | – | Caspase Assay, average IC50 [6]: 61.5 pM; NFkB Assay, average IC50 [6]: 180 pM
4 | 1D1 DH3 (antibody, V domains shown, IgG with triple mutant Fc as for 1D1 D37) VH: QVQLVQSGAEVKKPGASVKVSCKASGYSFTYYGISWVRQAPGQGLEWMGWISTYNGNTHYAQMLQGRVTMTTDTSTRTAYMELRSLRSDDTAVYYCARENYYGSGSYRGGMDVWGQGTTVTVSS VL: EIVLTQSPATLSLSPGERATLSCRASQSVSSYLAWYQQKPGQAPRLLIYDASNRATGIPARFSGSGSGTDFTLTISSLEPEDFAVYYCQQRSNWPWTFGQGTKVEIKR | – | – | – | – | – | – | – | – | – | – | – | – | – | – | 0.412 | 0.00102 | 2.49e+06 | 0.62 | 0.56 | 0.675 | –
5 | anti-TL1A antibody 7D4 (antibody, human IgG1, kappa, V domains shown, Human IgG1-3m, kappa; also called 7D4-hIgG1-3m) VH: QVQLVQSGAEVKKPGASVKVSCKASGYTFTSYGINWVRQAPGQGLEWMGWISTYNGNTNSAQKLQGRVTMTTDTSTSTAYMELRSLRSDDTAVYYCARAHSSSWFDAFDIWGQGTMVTVSS VL: AIQLTQSPSSLSASVGDRVTITCRASQGISSALAWYQQKPGKAPKLLIYDASSLESGVPSRFSGSGSGTDFTLTISSLQPEDFATYYCQQFNSYPLTFGGGTKVEIKR | – | – | – | – | – | – | – | – | – | – | – | – | – | – | – | – | – | – | – | – | Kd [11]: 0.9 nM; koff [11]: 0.0004 s⁻¹; kon [11]: 400000 M⁻¹ s⁻¹; Kd [12]: 6.9 nM; koff [12]: 0.0014 s⁻¹; kon [12]: 200000 M⁻¹ s⁻¹
6 | anti-TL1A antibody 26B11 (antibody, V domains shown, also called 26B11-hIgG1-3m) VH: QVQLVESGGGVVQPGRSLRLSCAASGFTFSSFAMHWVRQAPGKGLEWVALIPFDGSSNYYADSVKGRFTISRDNSKNTLYLQMNSLRAEDTAVYYCARDRNYYGSGSFSFDAFDIWGQGTLVTVSS VL: DIQMTQSPSSLSASVGDRVTITCRASQGISNWLAWYQQKPEKAPKSLIYAASSLQSGVPSRFSGSGSGTDFTLTISSLQPEDFATYYCQQYNSYPYTFGQGTKLEIKR | – | – | – | – | – | – | – | – | – | – | – | – | – | – | – | – | – | – | – | – | Kd [11]: 0.6 nM; koff [11]: 0.00011 s⁻¹; kon [11]: 170000 M⁻¹ s⁻¹; Kd [12]: 36 nM; koff [12]: 0.006 s⁻¹; kon [12]: 200000 M⁻¹ s⁻¹

The next lines start with results.

Row | Kd [1] [nM] | Kd [2] [nM] | koff [2] [s⁻¹] | kon [2] [M⁻¹ s⁻¹] | t1/2 [2] [s] | Kd [3] [pM] | Kd [4] [nM] | koff [4] [s⁻¹] | kon [4] [M⁻¹ s⁻¹] | t1/2 [4] [h] | Kd [5] [nM] | koff [5] [s⁻¹] | kon [5] [M⁻¹ s⁻¹] | t1/2 [5] [s] | Kd [7] [nM] | koff [7] [s⁻¹] | kon [7] [M⁻¹ s⁻¹] | Kd [8] [nM] | Kd [9] [nM] | Kd [10] [nM] | Binder | further results
7 | – | – | – | – | – | – | – | – | – | – | – | – | – | – | 0.326 | 0.00035 | 1.26e+06 | 0.787 | 0.305 | 0.335 | 1D1 D37 (antibody, IgG1, V domains shown, same light chain as 1D1; also called 1D1-VH-37) VH: QVQLVQSGAEVKKPGASVKVSCKASGYSFTYYGISWVRQAPGQGLEWMGWISTYNGGTHYARMLQGRVTMTTDTSTRTAYMELRSLRSDDTAVYYCARENYYGSGSYRGGMDVWGQGTTVTVSS VL: EIVLTQSPATLSLSPGERATLSCRASQSVSSYLAWYQQKPGQAPRLLIYDASNRATGIPARFSGSGSGTDFTLTISSLEPEDFAVYYCQQRSNWPWTFGQGTKVEIKR | –
8 | < 0.1 | 1.11 | 0.00028 | 250000 | 2510 | 1.16 | 0.083 | 3.6e-05 | 440000 | 5.38 | 5.92 | 0.0024 | 410000 | 286 | – | – | – | – | – | – | 1D1 1.34 (antibody, human IgG1, kappa, V domains shown, Expressed as IgG1) VH: QVQLVQSGAEVKKPGASVKVSCKASGYDFTYYGISWVRQAPGQGLEWMGWISTYNGKTHYARMHQGRVTMTTDTSTRTAYMELRSLRSDDTAVYYCARENYYGSGAYRGGMDAWGQGTTVTVSS VL: EIVLTQSPATLSLSPGERATLSCRASQSVSSYLAWYQQKPGQAPRLLIYDASNRATGIPARFSGSGSGTDFTLTISSLEPEDFAVYYCQQRSNWPWTFGQGTKVEIKR | Caspase Assay, average IC50 [6]: 62.7 pM; NFkB Assay, average IC50 [6]: 182 pM
9 | – | – | – | – | – | – | – | – | – | – | – | – | – | – | 0.44 | 0.000463 | 1.05e+06 | 1.29 | 0.687 | 0.611 | 1D1 D38 (antibody, V domains shown, IgG with triple mutant Fc as for 1D1 D37) VH: QVQLVQSGAEVKKPGASVKVSCKASGYSFTYYGISWVRQAPGQGLEWMGWISTYNGVTHYARMLQGRVTMTTDTSTRTAYMELRSLRSDDTAVYYCARENYYGSGSYRGGMDVWGQGTTVTVSS VL: EIVLTQSPATLSLSPGERATLSCRASQSVSSYLAWYQQKPGQAPRLLIYDASNRATGIPARFSGSGSGTDFTLTISSLEPEDFAVYYCQQRSNWPWTFGQGTKVEIKR | –
10 | – | – | – | – | – | – | – | – | – | – | – | – | – | – | 0.442 | 0.000355 | 784000 | 0.613 | 0.441 | 0.396 | 1D1 D39 (antibody, V domains shown, IgG with triple mutant Fc as for 1D1 D37) VH: QVQLVQSGAEVKKPGASVKVSCKASGYSFTYYGISWVRQAPGQGLEWMGWISTYNGNTNYARMLQGRVTMTTDTSTRTAYMELRSLRSDDTAVYYCARENYYGSGAYRGGMDAWGQGTTVTVSS VL: EIVLTQSPATLSLSPGERATLSCRASQSVSSYLAWYQQKPGQAPRLLIYDASNRATGIPARFSGSGSGTDFTLTISSLEPEDFAVYYCQQRSNWPWTFGQGTKVEIKR | –
